{"source": "paper PMC5294778", "biological_target": "FBXW7 (UniProt Q8VBV4)", "assay": "anti-FLAG co-IP, MCL1-HA blot", "conditions": "reference: WT MCL1-HA; sites S140", "data": [{"substance": "MCL1 (from UniProt P97287) MCL1-HA S140A", "values": [{"measurement": "binding against the reference", "result": "weaker"}]}]}
